Reference: patent US7498317B2, “Antibacterial agents and process for producing the same” (Kabushiki Kaisha Yakult Honsha, priority 1998, dated 2009)

Test system: Helicobactor pylori
Test: Growth of Helicobactor pylori in 96-well microplate (turbidity at 600 nm)
Type: cell-based
Settings: 37° C. for 3 days; for suppression of the growth of Helicobactor pylori: 2 μL of 1 mg/mL added to 200 μL culture; for absorbance (turbidity at 600 nm): 2 μL of 1 mg/mL added to 200 μL of 1.5×10^8 CFU/mL in Brucella medium with 5% FCS, slightly aerobic, control group 0.835

| SMILES | suppression of the growth of Helicobactor pylori | absorbance (turbidity at 600 nm) |
| --- | --- | --- |
| CC1(C)S[C@@H]2[C@H](NC(=O)C(NCC(O)C3OCC(O)C3OC3OC(CO)C(OS(=O)(=O)O)C(O)C3O)c3ccccc3)C(=O)N2C1C(=O)O (stereo partly shown) [CarrabioAM] | totally suppressed the growth | 0.003 |
| CON=C(C(=O)N[C@@H]1C(=O)N2C(C(=O)O)=C(COC(C)=O)CS[C@H]12)c1csc(NCC(O)C2OCC(O)C2OC2OC(CO)C(OS(=O)(=O)O)C(O)C2O)n1 (stereo partly shown) [CarrabioCTX] | totally suppressed the growth | 0.000 |
